Assay: yeast display, Sf9 membrane polyspecificity reagent, FACS + sequencing; frameworks hold sequencing errors
Outline: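 A synthetic nanobody library was expressed on Saccharomyces cerevisiae BJ5465 by galactose induction for 36–48 hours. The library was stained for 1 hour at 4 °C with 10% biotinylated, detergent-solubilized Sf9 membrane reagent and enriched with streptavidin microbeads before FACS. Low and high (top ~1%) gates were set on anti-HA fluorescence for expression and streptavidin fluorescence for reagent binding, and each polyreactivity label reflects the gate of origin.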

Sequence	polyreactivity (PSR sort gate)
QVQLVESGGGLDQAGGSLRLSCAASGIIFGVNVMGWYRQAPGKERELVATITWRGDSTYYADSVKGRFTISRDNAKNTVYLQMNSLKPEDTAVYYCARGARTGVREDDYWGQGTQVTLSS	low polyreactivity
QVQLVESGGGLDQAGGSLRLSCAASGIIFKYYAMGWYRQAPGKERELVAAINYSGGRTYYADSVKGRFTISRDNAKNTVYLQMNSLKPEDTAVYYCAKVPAYADRGKFDYWGQGTQVTVSS	high polyreactivity
QVQLVESGGGLDQAGGSLRLSCAASGITFFNYAMGWYRQAPGKEREFVAGIDSSGGSTSYADSVKGRFTISRDNAKNTVYLQMNSLKPEDTAVYYCAADRTGSHFDYWGQGTQVTVSS	low polyreactivity
QVQLVESGGGLDQAGGSLRLSCAASGITFYGYTMGLYRQAPGKERELVATITRGGSTYYADSVKGRFTISRDNAKNTVYLQMNSLKPEDTAVYYCAAESQYDYGVEYDYWVQGTQVTVSS	low polyreactivity
QVQLVESGGGLDQAGGSLRLSCAASGLIFRPYDMGWYSQAPGKERELVAAISNGDSTNYADSVKGRFTISRDNAKNTDYLEMNSLKPEDTAVYYCNAAIPSWLEYEYWGQGTQVTVSS	low polyreactivity
QVQLVESGGGLDQAGGSLRLSCAASGLISYRNAMGWYRQAPGKERELVAAISSDGSTYYADSVKGRFTISRDNAKNSVYLQMNSLKPEDTAVYYCNADVFRKFGSPSAYKSHRYDYWGQGTQVTVSS	low polyreactivity
QVQLVESGGGLDQAGGSLRLSCAASGLTFAYYTMGWSRQEPGKERELVADISRSGGSTYYADSVKGRFTISRDNAKNTVYLQMNSLKPEDTAVYYCAAYRYGSRYGYEYWGQGTQVTVSS	high polyreactivity
QVQLVESGGGLDQAGGSLRLSCAASGLTFGTYPMGWYRQAPGKETELVAAIRSGGSTNYADSVKGRFTISRDNAKNTVYLQMNSLKPEDTAVYYCNSVTVYYRKYEFWGQGTQVTVSS	high polyreactivity
QVQLVESGGGLDQAGGSLRLSCAASGLTFQLYTMGWYRQAHGKERELVAAISRSGTRTYYADSVKGRFTISLDNAKNTVYLQMNSLKPEDTAVYYCAARTDGYRNNYWGQGTQVTVSS	high polyreactivity
QVQLVESGGGLDQAGGSLRLSCAASGNTFHPYAMGWYRQAPGKERELVAAITKSGGSTYYADSVKGRFTISRDNAKKTVYLQMNSLKPEDTAVYYCNADDGVTEYDYWGQGTQVTVSS	low polyreactivity
QVQLVESGGGLDQAGGSLRLSCAASGRIFCQYAMGWYRQAPGKERELVAAMSRSGGSTYYAHSVKGRFTISRDNAKNTVYLQMTSLKPEDTAVYYCAARKASGDPGSAGRPEYYYWGQGNQVTVSS	high polyreactivity
QVQLVESGGGLDQAGGSLRLSCAASGRIIRFYAMAWYRQAPGKERELVAAISSRGGSTYYADSVKGRFTISRDNAKNTVYLQKNSLKPEDTAVYYCAKKTWRDYAYNYWGQGTQVTVSS	high polyreactivity
QVQLVESGGGLDQAGGSLRLSCAASGRISGYYDMVWYRQAPGKERELVATITSDGGTNYADSVKGRFTISRDNAKNCVYLQINSLKPEDTAVYYCAAYGWYTKWHFAYGYWGQGTQVTVSS	low polyreactivity
QVQLVESGGGLDQAGGSLRLSCAASGRTFNPYVLGWYRQAPGKERELVAVITSSGDSTYYADSVKGRFTISRDNAKNTVYLQMNSLKPEDTAVYYCNADYLYYDYDYWGQGTQVTVSS	high polyreactivity
QVQLVESGGGLDQAGGSLRLSCAASGRTFTGNAMGWYRQAPGKERELVAAISSRGSSTYYADSVKGRFTISRDNAKNTVYLQMNSLKPEDTAVYYCAAVWPRPKYVYESDYWGQGTQVTVSS	high polyreactivity
QVQLVESGGGLDQAGGSLRLSCAASGRTFYRNVMGWYRQAHGKERELVAAISSRGGSTYYADSVKGRFTISRDNAKNTVYLQMNSLKPEDTAVYYCAAYYYRRRYGGKYDYWGQGTQVTVSS	high polyreactivity
QVQLVESGGGLDQAGGSLRLSCAASGSIFDANAMVWYRQAPGKERELVAAITSSGGITYYADSVKGRFTISRDNAKNTVYLHLNSLKPADTAVYYCAAEYGYIDYSYLYWYDYWGQGTQVTVSS	high polyreactivity
QVQLVESGGGLDQAGGSLRLSCAASGSIFEPNAMVWYRQAPGKERELVAAITGGGGTNYADSVKGRFTLSRDNAKYTVYLQMNSLKPEDTAVYYCAKEVDHGDASDMDYWGQGTQVTVSS	low polyreactivity
QVQLVESGGGLDQAGGSLRLSCAASGSIFFTYVMGWYRQAPGKERQLVAAISSDDITNYADSVKGRFTISRDNAKNTVYLQMNSLKPEDTAVYYCNADTTLYPYYDYGYYDYDYWGQGTQVTVSS	low polyreactivity
QVQLVESGGGLDQAGGSLRLSCAASGSIFKLNARGWYREAPGKERELVAAITSVGRTYYADSVKGRFTISRDNAKKTVYLQMNSLKPEDTAVYYCGAARYGVYWYGYWGQGTQVTVSS	high polyreactivity
QVQLVESGGGLDQAGGSLRLSCAASGSIFNFYALGWYRQAPGKERELVAAISWSAGSTYYADSVKGRFTISRDYAKNTVYLQMNSLKPEDTAVYYCAADRYAYDWIQYYYHFLYDYWGQGTQVTVSS	low polyreactivity
QVQLVESGGGLDQAGGSLRLSCAASGSIFPFYAMGWYRQAPGKERELVAAISSRGGSTYYADSVKGRFTISRDNAKNTVYLQMNSLKPEDTAVYYCAARDYSIKVRLGYWGQGTHVTVSS	low polyreactivity

Sequence	polyreactivity (PSR sort gate)
QVQLVESGGGLDQAGGSLRLSCAASGSIFSHYAMGWYRQAPGKERELVAAISRSGGSTYYADSVKGRFTISRDNAKNTVYLQMNSLKPDDTAVYYCSKEGDSGYWFDYWGQGTQVTVSS	low polyreactivity
QVQLVESGGGLDQAGGSLRLSCAASGSIFTDNAMGWYRQAPGKERELVASITIAGSTKYADSVKGRFTISRDNAKKTVYLQMNSLKPEDTAVYYCNAEASDLHDYWGQGTQVTVSS	low polyreactivity
QVQLVESGGGLDQAGGSLRLSCAASGSIFVNYARGWYRQAPGKERELVAAITRSGGRTYYADSVKGRFTISRDNAKNTVYLQMNSLKPEVTAVYYCAARRGYAGNRDGYWGQGTQVNVSS	high polyreactivity
QVQLVESGGGLDQAGGSLRLSCAASGSIFVYYAMGWYRHAPGKEMELVAAITSGTSTNYADSVKGRFTISRDNAQNTVYLQMNSLKPEDTAVYYCAADHYYTGTTYNYWGQGNQVTVSS	low polyreactivity
QVQLVESGGGLDQAGGSLRLSCAASGSIFYRNAIGWYRQAPGKDREFVAAITLRGGSTYYADSVKGRFTISRDNAKNTVYLQMNSLKPEDTAVYYCAADLLLYSSQDNDYWGQGTQVTVSS	low polyreactivity
QVQLVESGGGLDQAGGSLRLSCAASGSIFYVNAMGWYRQAPGKERELVAAITSGGSTSYADSVKGRFTISRDNAKNTVYLQMNSLKPEDTAVYYCAADWDYPEQYRVNYEYGYWGLGTQVTVSS	low polyreactivity
QVQLVESGGGLDQAGGSLRLSCAASGSIFYYYVMGWYRQAPGKERELVAAITNSDRTYYADSVKGRFTISRDNAKNTVYLQMNSLKLEDTAVYYCNADWFDQYYRDGLRGRYGYWRQGTQVTVSS	low polyreactivity
QVQLVESGGGLDQAGGSLRLSCAASGSIIGIYAMGWYRQAPGKERELVAAISWSGGSTYYADSVKGRFTISRDNAKNTVYLQMNSLKPEDTAVYYCAARGHYQYYWGQGTQVTVSS	low polyreactivity
QVQLVESGGGLDQAGGSLRLSCAASGSTFARNVMGWYRLAPGKERELVAAISWRGGRTYYADSVKGRFTISRDNAKNTVYLQMNSLKPEDTAVYYCAAGRSFRGSYWYEYWGQGTQVTVSS	high polyreactivity
QVQLVESGGGLDQAGGSLRLSCAASGSTFESNAMGWYRQAPGKERELVAAISWRVGSTYYADSVKGRFTISRDNAKNTDYLQMHSLKPEDTAVYYCASKGWYSHYGGYDYWGQGTQVTVSS	low polyreactivity
QVQLVESGGGLDQAGGSLRLSCAASGSTFGWYAMGWYIQAPGTERELVAAINSSGGTTYYADSVKGLFTISRDNAMNTVYLQMNSLKPEDTAVHYCAARQVYSVGKDTRSVGYWGQGTQVTGSS	low polyreactivity
QVQLVESGGGLDQAGGSLRLSCAASGSTFGYYAMAWYRQSPGKERELVAAITSGASTNYADSVKGRFTISRDNAKNTVYLQMNSLKPEDTAVYYCAAGFQTRTPLNEFDYWGQGTQVTLSS	low polyreactivity
QVQLVESGGGLDQAGGSLRLSCAASGSTFRYSVMGWSRQAPGKERELVAGISYRGGTTYYADSVKGRFTISRDNAKNTVYLQMNSLKPEDTAVYYCAADSTPYVLSGNYDYWGQGTQVTVSS	low polyreactivity
QVQLVESGGGLDQAGGSLRLSCAASGSTFYAYAMGWYRQAPGKERELVAANSSDGTNYADSVKGRFTLSRDNAKNTVYLQMNSLKPEDTAVYYCAKDSVWGAKNLTSYKYYYWGQGTQVTVSS	low polyreactivity
QVQLVESGGGLDQAGGSLRLSCAASGYIFYRNAMGCYRQAPGKERELVAAITYTGGRTYYADSVKGRFTISRDNAKNTVYLQMNSLKPEDTAVYYCNADGRVFVVRPYYDYEYWGQGTQVTVSS	low polyreactivity
QVQLVESGGGLDQAGGSLRLSCAASVSNFEYYVMGWYRQAPGTERELVAVIRRSSGSTYYADSVKGRFTISRDNAKNTVYLQMNSLKPEDTAVYYCAARRYEPIIWHRMDYCGQGTQVTVSS	low polyreactivity
QVQLVESGGGLDQAGGSLRLSCAAYGNTFRGYTMGWYRQAPGKEREFVAAISWSGGRTNYADSVKGRFTISRDNAKNTVYLQMNSLKPEDTAVYYCARDYRARRWGMDYWGQGTQVTVSS	high polyreactivity
QVQLVESGGGLDQAGGSLRLSCAAYGSIFYGYAMGWYRTAPGKERELVAAITSGGSTYYADSVKGRFTISRDNAKNTVYLQMNSLKPEDTAVYYCAATFCTWYSWYDYWGQGTQVTVSS	high polyreactivity
QVQLVESGGGLDQAGGSLRLSCADSGYILDRNAMGWYRHAPGKETALVAVISWGGTRTYYADSVKGRFTISRDNAKNTVYLQMISLKPEDTAVYYCARYPYYYGYAGRYDYWGQGTQVTVSS	high polyreactivity
QVQLVESGGGLDQAGGSLRLSCAPSGRIFYTNAMGWYRQAPGKERELVAAISSGGGRTYYADSVKGRFTISRDNAKNTVYLQMNSLKPEDTAVYYCAASNVGYRSYSRGFDYWGQGTQVTVSS	high polyreactivity
QVQLVESGGGLDQAGGSLRLSCASSGIIFWWNTMGGYRQAPGQESEMVAAISTGGSTNYADSVKGRFTISRDNAKNTVYLQMNSLKPEDTAVYYCNADWTDGDWADMDYWGQGTQVTVSS	low polyreactivity

Reference: the nanobody polyreactivity screen of Harvey et al. (2022)
